According to US20130344073:

Assays:
[1] = target: ST-pro-factor D-His, P00746
[2] = target: purified plasma factor B, P00751
[3] = target: ST-pro-factor D-His (UniProt P00746)
[4] = target: pro-factor D-His (UniProt P00746)
[5] = target: pro-factor D-His, P00746
Sequence of pro-factor D-His, P00746 (P00746 whole entry, looked up): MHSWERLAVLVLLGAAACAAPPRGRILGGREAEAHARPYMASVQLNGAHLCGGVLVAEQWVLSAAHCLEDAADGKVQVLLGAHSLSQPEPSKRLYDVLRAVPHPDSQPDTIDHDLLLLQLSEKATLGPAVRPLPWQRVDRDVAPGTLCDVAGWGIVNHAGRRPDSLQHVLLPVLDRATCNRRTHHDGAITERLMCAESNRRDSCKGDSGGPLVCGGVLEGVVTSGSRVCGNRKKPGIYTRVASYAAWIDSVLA

Sequence of ST-pro-factor D-His, P00746 (P00746 whole entry, looked up): as above
Sequence of pro-factor D-His (P00746 other isoform, or with tags, fused parts or gaps): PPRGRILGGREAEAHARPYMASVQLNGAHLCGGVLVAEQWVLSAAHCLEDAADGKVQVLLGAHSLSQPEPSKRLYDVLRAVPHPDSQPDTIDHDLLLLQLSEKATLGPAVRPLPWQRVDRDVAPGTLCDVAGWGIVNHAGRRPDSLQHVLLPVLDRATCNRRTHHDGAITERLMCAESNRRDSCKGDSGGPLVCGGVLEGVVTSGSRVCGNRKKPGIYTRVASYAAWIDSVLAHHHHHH
Sequence of ST-pro-factor D-His (P00746 other isoform, or with tags, fused parts or gaps): as above
Sequence of purified plasma factor B, P00751 (P00751 26-764): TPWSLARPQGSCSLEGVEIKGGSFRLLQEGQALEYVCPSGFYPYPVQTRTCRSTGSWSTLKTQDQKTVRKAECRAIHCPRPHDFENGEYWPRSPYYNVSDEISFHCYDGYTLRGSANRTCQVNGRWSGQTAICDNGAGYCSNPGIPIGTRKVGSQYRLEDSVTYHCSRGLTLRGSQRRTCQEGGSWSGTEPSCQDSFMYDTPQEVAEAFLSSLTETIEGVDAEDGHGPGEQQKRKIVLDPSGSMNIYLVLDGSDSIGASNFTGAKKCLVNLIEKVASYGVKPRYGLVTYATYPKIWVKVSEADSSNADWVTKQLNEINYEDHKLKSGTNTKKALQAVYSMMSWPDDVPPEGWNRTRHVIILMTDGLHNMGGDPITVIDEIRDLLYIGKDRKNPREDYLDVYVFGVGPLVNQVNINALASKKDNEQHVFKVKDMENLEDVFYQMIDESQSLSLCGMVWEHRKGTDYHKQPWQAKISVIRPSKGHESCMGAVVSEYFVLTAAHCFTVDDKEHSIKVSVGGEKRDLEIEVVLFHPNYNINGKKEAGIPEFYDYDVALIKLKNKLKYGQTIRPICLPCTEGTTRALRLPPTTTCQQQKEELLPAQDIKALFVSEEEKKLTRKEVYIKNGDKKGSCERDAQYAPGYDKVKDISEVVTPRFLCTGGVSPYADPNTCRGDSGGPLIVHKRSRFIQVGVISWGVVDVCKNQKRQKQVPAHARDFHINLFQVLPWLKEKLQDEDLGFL

B1: human MASP-3 (protein)
chain: HTVELNNMFGQIQSPGYPDSYPSDSEVTWNITVPDGFRIKLYFMHFNLESSYLCEYDYVKVETEDQVLATFCGRETTDTEQTPGQEVVLSPGSFMSITFRSDFSNEERFTGFDAHYMAVDVDECKEREDEELSCDHYCHNYIGGYYCSCRFGYILHTDNRTCRVECSDNLFTQRTGVITSPDFPNPYPKSSECLYTIELEEGFMVNLQFEDIFDIEDHPEVPCPYDYIKIKVGPKVLGPFCGEKAPEPISTQSHSVLILFHSDNSGENRGWRLSYRAAGNECPELQPPVHGKIEPSQAKYFFKDQVLVSCDTGYKVLKDNVEMDTFQIECLKDGTWSNKIPTCKIVDCRAPGELEHGLITFSTRNNLTTYKSEIKYSCQEPYYKMLNNNTGIYTCSAQGVWMNKVLGRSLPTCLPECGQPSRSLPSLVKRIIGGRNAEPGLFPWQALIVVEDTSRVPNDKWFGSGALLSASWILTAAHVLRSQRRDTTVIPVSKEHVTVYLGLHDVRDKSGAVNSSAARVVLHPDFNIQNYNHDIALVQLQEPVPLGPHVMPVCLPRLEPEGPAPHMLGLVAGWGISNPNVTVDEIISSGTRTLSDVLQYVKLPVVPHAECKTSYESRSGNYSVTENMFCAGYYEGGKDTCLGDSGGAFVIFDDLSQRWVVQGLVSWGGPEECGSKQVYGVYTKVSNYVDWVWEQMGLPQSVVEPQVER
[1]
  cleavage of pro-factor D (Western blot), 80 ng MASP-3, 70 ng substrate, 75 minutes at 37 C: MASP-3 cleaves approximately 50% of pro-factor D into factor D (lane 1)
[2]
  factor B cleavage (Coomassie-stained SDS-PAGE), with C3(H2O): either MASP-3 or pro-factor D are able to mediate factor B cleavage, as long as C3 is present

B2: recombinant MASP-1 (CCP1-CCP2-SP) fragment (enzyme, part only; not given: amino-terminal Strep tag)
chain, part: GNECPELQPPVHGKIEPSQAKYFFKDQVLVSCDTGYKVLKDNVEMDTFQIECLKDGTWSNKIPTCKIVDCRAPGELEHGLITFSTRNNLTTYKSEIKYSCQEPYYKMLNNNTGIYTCSAQGVWMNKVLGRSLPTCLPVCGLPKFSRKLMARIFNGRPAQKGTTPWIAMLSHLNGQPFCGGSLLGSSWIVTAAHCLHQSLDPKDPTLRDSDLLSPSDFKIILGKHWRLRSDENEQHLGVKHTTLHPKYDPNTFENDVALVELLESPVLNAFVMPICLPEGPQQEGAMVIVSGWGKQFLQRFPETLMEIEIPIVDHSTCQKAYAPLKKKVTRDMICAGEKEGGKDACSGDSGGPMVTLNRERGQWYLVGTVSWGDDCGKKDRYGVYSYIHHNKDWIQRVTGVRNHHHHHH
[3]
  cleavage of pro-factor D (Western blot): only full length MASP-3 (lane 2) and the MASP-1 CCP1-CCP2-SP) fragment (lane 5) cleaved ST-pro-factor D-His6
[4]
  cleavage of pro-factor D (Western blot): Identical results were obtained with the pro-factor D-His6 polypeptide (not shown)

B3: catalytically-inactive MASP-1 (S646A) (protein)
chain: HTVELNNMFGQIQSPGYPDSYPSDSEVTWNITVPDGFRIKLYFMHFNLESSYLCEYDYVKVETEDQVLATFCGRETTDTEQTPGQEVVLSPGSFMSITFRSDFSNEERFTGFDAHYMAVDVDECKEREDEELSCDHYCHNYIGGYYCSCRFGYILHTDNRTCRVECSDNLFTQRTGVITSPDFPNPYPKSSECLYTIELEEGFMVNLQFEDIFDIEDHPEVPCPYDYIKIKVGPKVLGPFCGEKAPEPISTQSHSVLILFHSDNSGENRGWRLSYRAAGNECPELQPPVHGKIEPSQAKYFFKDQVLVSCDTGYKVLKDNVEMDTFQIECLKDGTWSNKIPTCKIVDCRAPGELEHGLITFSTRNNLTTYKSEIKYSCQEPYYKMLNNNTGIYTCSAQGVWMNKVLGRSLPTCLPVCGLPKFSRKLMARIFNGRPAQKGTTPWIAMLSHLNGQPFCGGSLLGSSWIVTAAHCLHQSLDPEDPTLRDSDLLSPSDFKIILGKHWRLRSDENEQHLGVKHTTLHPQYDPNTFENDVALVELLESPVLNAFVMPICLPEGPQQEGAMVIVSGWGKQFLQRFPETLMEIEIPIVDHSTCQKAYAPLKKKVTRDMICAGEKEGGKDACAGDAGGPMVTLNRERGQWYLVGTVSWGDDCGKKDRYGVYSYIHHNKDWIQRVTGVRN
[1]
  cleavage of pro-factor D (Western blot): The catalytically-inactive full length MASP-3 (S679A; lane 3) and MASP-1 (S646A; lane 3) failed to cleave either substrate
[5]
  cleavage of pro-factor D (Western blot): The catalytically-inactive full length MASP-3 (S679A; lane 3) and MASP-1 (S646A; lane 3) failed to cleave either substrate
